According to patent US20170313769A1 (Pfizer, published 2017):
Substitutions are numbered along the chain they refer to.

Experiments:
Mouse IFNβ = Mouse IFNβ (mouse, UniProt P01575 22-182); assay: plate ELISA, mouse IFNβ coated at 1 µg/mL
CID1280 = biological target: T1, CID1280 (human (IFNβ with IFNα sequence inserted), UniProt P01574 22-187); assay: cell-based or functional assay
T1 chain: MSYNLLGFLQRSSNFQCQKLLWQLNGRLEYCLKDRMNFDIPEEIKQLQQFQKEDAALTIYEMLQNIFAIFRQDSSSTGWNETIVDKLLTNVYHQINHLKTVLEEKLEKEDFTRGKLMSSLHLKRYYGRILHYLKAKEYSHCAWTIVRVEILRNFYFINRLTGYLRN

CID1285 = biological target: T2, CID1285 (human (IFNβ with IFNα sequence inserted), UniProt P01574 22-187); assay: cell-based or functional assay
T2 chain: T1 chain with D85E, K86N, T89A, A135E, E137K

CID1276 = biological target: T3, CID1276 (human (IFNβ with IFNα sequence inserted), UniProt P01574 22-187); assay: cell-based or functional assay
T3 chain: T1 chain with F15R, Q16R, Q18L, K19M, W22A, D85E, K86N, T89A

CID1286 = biological target: T4, CID1286 (human (IFNβ with IFNα sequence inserted), UniProt P01574 22-187); assay: cell-based or functional assay
T4 chain: T1 chain with D85E, K86N, T89A, H140P

CID1277 = biological target: T5, CID1277 (human (IFNβ with IFNα sequence inserted), UniProt P01574 22-187); assay: cell-based or functional assay
T5 chain: T1 chain with M36H, N37D, D39G, E42Q, D85E, K86N, T89A

[1] = biological target: T6, Human IFNβ (mature human interferon beta) (human, UniProt P01574 22-187); assay: cell-based or functional assay
CID1283 = biological target: T7, CID1283 (human (IFNβ with IFNα sequence inserted), UniProt P01574 22-187); assay: cell-based or functional assay
T7 chain: T1 chain with D85E, K86N, T89A, S119I, K123R, R124K

CID1287 = biological target: T8, CID1287 (human (IFNβ with IFNα sequence inserted), UniProt P01574 22-187); assay: cell-based or functional assay
T8 chain: T1 chain with D85E, K86N, T89A, V148A, Y155S, F156L, N158T

CID1281 = biological target: T9, CID1281 (human (IFNβ with IFNα sequence inserted), UniProt P01574 22-187); assay: cell-based or functional assay
T9 chain: T1 chain with D85E, K86N, T89A, N90E, H93Q, H97D, K99E, T100A

Human IFNω = Human IFNω (human, UniProt P05000 24-195); assay: plate ELISA, human IFNω coated at 5 µg/mL
Sequence of Human IFNω (P05000 24-195): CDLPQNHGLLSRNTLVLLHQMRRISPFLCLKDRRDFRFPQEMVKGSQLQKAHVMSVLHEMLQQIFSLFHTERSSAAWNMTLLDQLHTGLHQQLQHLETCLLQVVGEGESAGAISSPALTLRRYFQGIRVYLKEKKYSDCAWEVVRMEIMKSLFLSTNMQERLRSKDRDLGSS

Rat IFNβ = biological target: T10, Rat IFNβ (rat, UniProt P70499 22-184); assay: plate ELISA, rat IFNβ coated at 5 µg/mL
T10 sequence: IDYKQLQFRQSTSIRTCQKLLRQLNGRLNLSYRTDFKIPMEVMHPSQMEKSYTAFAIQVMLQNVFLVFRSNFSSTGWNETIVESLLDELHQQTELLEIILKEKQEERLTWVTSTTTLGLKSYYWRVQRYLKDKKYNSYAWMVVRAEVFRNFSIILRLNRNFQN

[2] = biological target: T6, Human IFNβ (mature human interferon …); assay: ELISA (summary value); human IFNβ
[3] = biological target: T6, Human IFNβ (mature human interferon …); assay: SPR, Biacore T200; CTI-AF1 immobilized on CM5 chip, human IFNβ (Peprotech) 10 to 0.078125 nM, 1:1 model
[4] = biological target: T6, Human IFNβ (mature human interferon …); assay: SPR (affinity maturation); after affinity maturation (four light chain mutations)
[5] = biological target: T6, Human IFNβ (mature human interferon …); assay: Octet (BLI) response rank; method not described
[6] = biological target: T6, Human IFNβ (mature human interferon …); assay: cell-based or functional assay; remark: listed apart in the source

Sequence of Mouse IFNβ (P01575 22-182): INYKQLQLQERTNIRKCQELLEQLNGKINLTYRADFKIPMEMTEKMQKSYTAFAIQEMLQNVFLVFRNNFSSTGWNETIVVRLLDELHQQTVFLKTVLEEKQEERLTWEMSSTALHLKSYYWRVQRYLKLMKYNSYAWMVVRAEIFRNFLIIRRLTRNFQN

binding result (Mouse IFNβ): no binding
IC50 (nM), neutralization of type I IFN-induced STAT1 phosphorylation (CID1280): 47.7 nM
IC50 (nM), neutralization of type I IFN-induced STAT1 phosphorylation (CID1285): 0.4 nM
IC50 (nM), neutralization of type I IFN-induced STAT1 phosphorylation (CID1276): 0.2 nM
IC50 (nM), neutralization of type I IFN-induced STAT1 phosphorylation (CID1286): 0.4 nM
IC50 (nM), neutralization of type I IFN-induced STAT1 phosphorylation (CID1277): 0.3 nM
IC50 (nM), neutralization of type I IFN-induced STAT1 phosphorylation [1]: 0.3 nM
IC50 (nM), neutralization of type I IFN-induced STAT1 phosphorylation (CID1283): 0.4 nM
IC50 (nM), neutralization of type I IFN-induced STAT1 phosphorylation (CID1287): 0.3 nM
IC50 (nM), neutralization of type I IFN-induced STAT1 phosphorylation (CID1281): 3280 nM
binding result (Human IFNω): no binding
binding result (Rat IFNβ): no binding
EC50 [2]: 0.0153 nM
Kd [3]: 0.0367 nM
Kd [4]: 0.029 nM
Response rank (Octet) [5]: 1 rank
IC50 (pM) ISRE Neutralization [6]: 2 pM
IC50 (pM) pSTAT1 Inhibition [6]: 4 pM
B1: CTI-AF1 (antibody, human IgG1, kappa, V domains shown)
VH: QVQLVQSGAEVKKPGSSVKVSCKASGYTFSRYWMHWVRQAPGQGLEWMGHIDPSDSYTYYNQKFKGRVTITADESTSTAYMELSSLRSEDTAVYYCARWDYGNLLFEYWGQGTLVTVSS
VL: DIQMTQSPSSLSASVGDRVTITCRTSQDIGNYLNWYQQKPGKAFKLLIYSTSRLHSGVPSRFSGSGSGTDFTLTISSLQPEDFATYYCQQGIILPITFGGGTKVEIKR
notes: Humanized IgG1; The C-terminal K of the heavy chain is printed as optional, '(K)'; also called anti-IFNβ antibody; humanized IgG1 antibody against interferon beta
